The text below walks through data of the supplement of paper PMC10126150.

± gives the standard deviation of the averaged measurements.
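Further: ATP exposure 15 min at 22 °C before imaging.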

The subject of this data set is ATP. The data set is described as follows: switch fluorescence ratio, 500 uM ATP over buffer (Cy3 cluster intensity, sum of 5 cycles each) (fold (ratio)); higher = stronger signal-on switching upon ATP binding; sequences stand for … in TCGTCGGCAGCGTCAGATGTGTATAAGAGACAGTTTTTTTTTTTTTTTTTTTTTTTTT…TC. The conditions noted are these: aptamer strand: ATP DNA aptamer (quencher-CACCTGGGGGAGTATTGCGGAGGAAGG + anchor), 100 nM annealed; ATP concentration: 500 uM. The method in brief: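 The fluorescence ratio divides summed target-cycle Cy3 intensity by summed buffer-cycle Cy3 intensity for each cluster and is averaged per switch-domain sequence. Cy3-labelled switching-strand clusters on a modified Illumina MiSeq flow-cell were annealed to 100 nM quencher-labelled ATP aptamer, then imaged in selection buffer and again after 15 min with 500 uM ATP at 22 °C. Five such cycles were run, with NaOH stripping and re-annealing between them, and clusters outside 100-1000 RFU were excluded.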
In the case of TGGGCTAAAT, the switch fluorescence ratio amounted to 0.987 ± 0.027. ACTGGTTATT: the switch fluorescence ratio amounted to 1 ± 0.016. The same measure for TTTAAATAAC: 1.02 ± 0.029; for CGGGTTTTTG: 0.994 ± 0.03. The same measure for TTGCCACTCT: 1.04 ± 0.064. The same measure for TCAGGGGCCC: 1.07 ± 0.084. On to TCCAGGGCGG, for which the switch fluorescence ratio is 1.06 ± 0.022. As for CAGCTTGATA, the figure is 0.979 ± 0.018.

ACGTTCGTAC: the switch fluorescence ratio is 1.04 ± 0.012. As for GATACCTTTG, the figure is 1.72 ± 1; as for ATTGAGCGGT, 0.983 ± 0.039. As for ACGAGGATGC, the figure is 1.09 ± 0.024; as for GGTTGAGTG, 0.977 ± 0.0033.

As to CGGTCCCATT, the switch fluorescence ratio came to 0.992 ± 0.047. In the case of CCGGCGGGGG, the switch fluorescence ratio turned out to be 1.4 ± 0.56.

AAGCATAGGA: the switch fluorescence ratio was found to be 1.02 ± 0.02.

For TAAGGCATTG, the switch fluorescence ratio is 0.996 ± 0.016. The same measure for AGAAAAAGGT: 1.01 ± 0.032; for TCATAAAACC: 1.09 ± 0.11. For the sequence GGGGAGTAGT, the switch fluorescence ratio was found to be 1.01 ± 0.024.

Consider TTTATGGAAT, for which the switch fluorescence ratio worked out at 0.998 ± 0.015.

Turning to TCGATACTTT, the switch fluorescence ratio was 1.03 ± 0.021. The same measure for CGCTATGTTT: 1.02 ± 0.019; for AGGTGACGAG: 1.02 ± 0.014.

As to GCGTAAAGGA, the switch fluorescence ratio was 1.02 ± 0.015.

Regarding AATGGGTTTG, the switch fluorescence ratio was 1.01 ± 0.03. For TCAGGAGGGC, the switch fluorescence ratio turned out to be 0.999 ± 0.016. The same measure for ACCTTGGGGA: 1.25 ± 0.4; for ACCGCTCGAA: 1.15 ± 0.056.

CAGTAAATGT: the switch fluorescence ratio is 0.984 ± 0.054. With CCGTTTTTAC, the switch fluorescence ratio stood at 4.11 ± 0.83. With GGGTTTGGTT, the switch fluorescence ratio worked out at 0.976 ± 0.041. As for TATGATGTAA, the figure is 1.02 ± 0.049; as for GGACAATGAG, 0.998 ± 0.035; as for AGTAATGTTT, 0.994 ± 0.02. As for AAGCTCTGTG, the figure is 0.95 ± 0.027; as for CCCAGGGT, 1.54 ± 0.67. As for TCTGGGTGGT, the figure is 0.977 ± 0.042.

GAGAGCGGTG: the switch fluorescence ratio is 0.9953 ± 0.0075. Consider TGAAGGGGGG, for which the switch fluorescence ratio was 0.984 ± 0.034. Regarding CGTCTGGCGG, the switch fluorescence ratio was 1.01 ± 0.021. As for ACTTGAAGGT, the figure is 1.02 ± 0.017; as for AGGTTGCGAT, 1.01 ± 0.013. The same measure for GGGAGCGTTG: 1.01 ± 0.016; for TGGGCGAACG: 0.9626 ± 0.0022. As for ATTAGTGTGG, the figure is 1 ± 0.033.

Turning to ATGATATTTG, the switch fluorescence ratio turned out to be 1.009 ± 0.006. The same measure for TGATTTCATT: 1.02 ± 0.048; for CTACGTTGGA: 1.03 ± 0.02. For TGGGATCCGC, the switch fluorescence ratio worked out at 1.03 ± 0.056.

Regarding TACTTAGGGA, the switch fluorescence ratio was 1.031 ± 0.0085. As for AGTCAAGGGT, the figure is 1 ± 0.0014; as for GCTTTTTCTT, 1.018 ± 0.004. The same measure for TCGGCTTGTT: 1.02 ± 0.02; for GTGGATTGGA: 1.05 ± 0.024. The same measure for GGGGGAATA: 0.993 ± 0.051. Regarding GGGTATGGTA, the switch fluorescence ratio turned out to be 1 ± 0.023. As for TTGTTGCTTT, the figure is 1.02 ± 0.03. The same measure for TTATGTTGTT: 1 ± 0.018; for CAGGTTTCGT: 0.989 ± 0.021. As for ATGATAGCTT, the figure is 1 ± 0.026; as for CGCAAAGAGG, 1.18 ± 0.11; as for AACAGGTGGG, 1.24 ± 0.023.

Consider ACTGTGTTAT, for which the switch fluorescence ratio is 0.983 ± 0.02. As for ACATTTTACT, the figure is 1.12 ± 0.014; as for GGGCGTGTTT, 1 ± 0.031; as for GGCGCAGCTG, 0.96511 ± 0.0006. TGAGGTAGCG: the switch fluorescence ratio came to 0.981 ± 0.034. For the sequence AAGTGCCCCA, the switch fluorescence ratio amounted to 1.05 ± 0.016. The same measure for TCGGGGGGGA: 1.06 ± 0.14; for AGTGTGTTTT: 0.996 ± 0.015. For ATGAGCGTCA, the switch fluorescence ratio was determined as 0.9904 ± 0.0017. As for GAGCCTTATG, the figure is 0.994 ± 0.033.

On to GAGTGTGTGT, for which the switch fluorescence ratio came to 1.006 ± 0.0053. For GGGAGGGGTG, the switch fluorescence ratio was 1.02 ± 0.064. As for TATGTACTAT, the figure is 1.08 ± 0.029. Take AGTAAAAAGG: the switch fluorescence ratio was 0.993 ± 0.021.

On to GGGTGAGGTA, for which the switch fluorescence ratio worked out at 0.97888 ± 0.00072.
